Test in all cases: far-Western, overlay or dot blot
Assay [1] concerns the target T1, E. coli UvrC (E. coli, UniProt P0A8G0 1-610).
T1 sequence (looked up): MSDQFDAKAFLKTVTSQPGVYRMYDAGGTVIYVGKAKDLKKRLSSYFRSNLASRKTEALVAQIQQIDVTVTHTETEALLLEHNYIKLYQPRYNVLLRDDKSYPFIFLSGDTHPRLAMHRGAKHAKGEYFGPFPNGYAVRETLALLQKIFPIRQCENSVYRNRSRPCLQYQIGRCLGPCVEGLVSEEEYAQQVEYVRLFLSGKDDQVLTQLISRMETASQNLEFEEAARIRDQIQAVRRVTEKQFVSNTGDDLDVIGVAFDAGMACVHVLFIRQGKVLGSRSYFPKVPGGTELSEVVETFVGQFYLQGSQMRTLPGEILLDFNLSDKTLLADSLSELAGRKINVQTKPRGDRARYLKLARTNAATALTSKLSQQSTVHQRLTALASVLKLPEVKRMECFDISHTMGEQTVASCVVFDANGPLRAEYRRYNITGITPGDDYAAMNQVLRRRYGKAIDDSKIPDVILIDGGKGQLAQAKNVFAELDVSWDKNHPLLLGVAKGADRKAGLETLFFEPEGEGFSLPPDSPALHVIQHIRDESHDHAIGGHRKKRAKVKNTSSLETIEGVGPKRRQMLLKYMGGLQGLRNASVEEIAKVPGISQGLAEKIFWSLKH

Assay [2] has as its target T2, E. coli UvrA (E. coli, UniProt P0A698 1-940).
T2 sequence (looked up): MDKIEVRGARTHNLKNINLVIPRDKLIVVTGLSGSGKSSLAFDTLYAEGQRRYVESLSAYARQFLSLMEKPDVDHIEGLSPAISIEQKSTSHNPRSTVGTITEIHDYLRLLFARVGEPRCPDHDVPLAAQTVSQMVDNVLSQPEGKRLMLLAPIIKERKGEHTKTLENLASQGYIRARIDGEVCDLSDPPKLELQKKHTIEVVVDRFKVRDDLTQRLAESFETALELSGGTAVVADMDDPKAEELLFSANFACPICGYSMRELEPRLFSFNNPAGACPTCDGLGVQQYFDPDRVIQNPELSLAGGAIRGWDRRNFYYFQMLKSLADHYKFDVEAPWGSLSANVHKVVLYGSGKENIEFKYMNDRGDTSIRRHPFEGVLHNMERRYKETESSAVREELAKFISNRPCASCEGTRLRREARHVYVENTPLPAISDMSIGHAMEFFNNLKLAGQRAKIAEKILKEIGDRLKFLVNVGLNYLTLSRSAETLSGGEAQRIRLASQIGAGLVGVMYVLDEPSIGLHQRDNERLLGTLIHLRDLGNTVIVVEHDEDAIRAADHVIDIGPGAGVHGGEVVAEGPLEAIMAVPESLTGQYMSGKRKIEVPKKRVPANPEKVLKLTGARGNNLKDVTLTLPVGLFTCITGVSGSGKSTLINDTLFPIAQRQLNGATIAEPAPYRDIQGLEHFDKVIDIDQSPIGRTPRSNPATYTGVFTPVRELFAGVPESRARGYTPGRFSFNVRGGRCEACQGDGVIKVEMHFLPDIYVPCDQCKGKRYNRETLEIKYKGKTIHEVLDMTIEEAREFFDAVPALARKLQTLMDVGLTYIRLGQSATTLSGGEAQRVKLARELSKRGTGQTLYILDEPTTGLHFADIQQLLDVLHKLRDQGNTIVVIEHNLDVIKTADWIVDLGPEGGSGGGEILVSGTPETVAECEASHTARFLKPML

The target in assay [3] is T3, FLAG-UvrA (E. coli) (E. coli, UniProt P0A698 1-940).
T3 sequence (looked up): T2 sequence (looked up)

B1: FLAG-eAtl (E. coli alkyltransferase-like protein) (natural protein, UniProt P0AFP2 1-129, looked up)
chain: MLVSCAMRLHSGVFPDYAEKLPQEEKMEKEDSFPQRVWQIVAAIPEGYVTTYGDVAKLAGSPRAARQVGGVLKRLPEGSTLPWHRVVNRHGTISLTGPDLQRQRQALLAEGVMVSGSGQIDLQRYRWNY
B1: the binding result in assay [1] and in assay [2] was “binds” throughout.

B2: S. pombe Atl1 (alkyltransferase-like protein 1) (natural protein)
chain: MRMDEFYTKVYDAVCEIPYGKVSTYGEIARYVGMPSYARQVGQAMKHLHPETHVPWHRVINSRGTISKRDISAGEQRQKDRLEEEGVEIYQTSLGEYKLNLPEYMWKP
As to B2, in assay [3], the binding result is on record as “binds”.

(Values after paper PMC2729916 (Nature, 2009).)
